Source: PMC2748320

Target: C-terminal mycHis-tagged Rp1L1 (1-361), expressed in COS7 cells (mouse) (UniProt Q8CGM2)
Assay: co-IP

UniProt Q8CGM2, sequence (Q8CGM2 1-361): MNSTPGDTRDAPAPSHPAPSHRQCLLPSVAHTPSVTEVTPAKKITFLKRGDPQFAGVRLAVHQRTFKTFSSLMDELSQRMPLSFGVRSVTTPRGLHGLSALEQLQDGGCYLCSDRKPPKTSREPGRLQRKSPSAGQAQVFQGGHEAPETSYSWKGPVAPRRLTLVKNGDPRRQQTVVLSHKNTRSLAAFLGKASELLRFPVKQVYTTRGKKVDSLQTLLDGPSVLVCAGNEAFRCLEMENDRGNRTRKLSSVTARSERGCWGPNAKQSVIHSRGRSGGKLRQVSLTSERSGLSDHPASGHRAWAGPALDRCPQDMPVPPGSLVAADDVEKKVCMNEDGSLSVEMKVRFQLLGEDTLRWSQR

N-terminal FLAG-tagged full-length Rp1, P56716 1-2095
percent of FLAG-Rp1 co-immunoprecipitated: 12%
